From FireProtDB (doi:10.1371/journal.ppat.1004158)

Conditions: Podospora anserina; pH 7.5; 25 °C; GdnHCl; optical density; whole UniProt chain shown

B1: Heterokaryon incompatibility protein s wild type, Q03689 (protein)
chain: MSEPFGIVAGALNVAGLFNNCVDCFEYVQLGRPFGRDYERCQLRLDIAKARLSRWGEAVKINDDPRFHSDAPTDKSVQLAKSIVEEILLLFESAQKTSKRYELVADQQDLVVFEDKDMKPIGRALHRRLNDLVSRRQKQTSLAKKTAWALYDGKSLEKIVDQVARFVDELEKAFPIEAVCHKLAEIEIEEVEDEASLTILKDAAGGIDAAMSDAAAQKIDAIVGRNSAKDIRTEERARVQLGNVVTAAALHGGIRISDQTTNSVETVVGKGESRVLIGNEYGGKGFWDN
  unfolding free energy: 2.9 kcal/mol
